Reference: patent US20220259294A1

Experiments:
[1] = target: IHF peptide of H. influenzae (Haemophilus influenzae); assay: Kd at pH 6.5 (Octet biosensor per Example 1)
[2] = target: IHF peptide of H. influenzae (Haemophilus influenzae); assay: Kd at pH 5.5 (Octet biosensor per Example 1)
[3] = target: IHF peptide of H. influenzae (Haemophilus influenzae); assay: Kd at pH 4.5 (Octet biosensor per Example 1)
[4] = target: IHF peptide of H. influenzae (Haemophilus influenzae); assay: Kd at pH 7.5 (Octet biosensor per Example 1)

B1: TRL295 (antibody, V domains shown)
VH: QVQLVESGGGLVQPGGSLRLSCAASGFPFSSYAMSWVRQAPGKGLEWVSAISGNGADSYYADSVKGRFTTSRDKSKNTVYLQMNRLRAEDTAVYYCAKDMRRYHYDSSGLHFWGQGTLVTVSS
VL: DIELTQAPSVSVYPGQTARITCSGDALPKQYAYWYQQKPGQAPVVVIYKDSERPSGISERFSGSSSGTTVTLTISGVQAGDEADYYCQSVDTSVSYYVVFGGGTKLTVL
Question: How did the Kd [1] turn out when B1 was run?
Answer: The Kd was 2.8 nM.

Question: And the Kd [2]?
Answer: The Kd was 2.8 nM.

Question: And the Kd [3]?
Answer: Its Kd is 3.7 nM.

Question: And the Kd [4]?
Answer: Its Kd is 4.2 nM.
